These results are taken from EP4563159A1.

The assay has as its target secretory IgA from human colostrum (human) (UniProt P11912). As to the kind of experiment: solid-phase IgA binding assay (ELISA): streptavidin-peptide conjugate coated, secretory IgA from human colostrum titrated, anti-human IgA-HRP detection.
Sequence of UniProt P11912 (P11912 whole entry): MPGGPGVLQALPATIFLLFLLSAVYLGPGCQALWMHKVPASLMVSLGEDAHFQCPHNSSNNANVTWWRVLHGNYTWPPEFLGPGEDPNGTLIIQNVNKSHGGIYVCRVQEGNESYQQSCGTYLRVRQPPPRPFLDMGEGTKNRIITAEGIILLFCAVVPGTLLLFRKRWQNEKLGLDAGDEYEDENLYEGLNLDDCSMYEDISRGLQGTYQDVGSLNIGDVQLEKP

B1: IgA binding peptide … (SEQ ID NO 36) (peptide)
peptide: HSVCLAYRGRPVCFPT
modifications: cyclized; carboxy terminal PEG linker and a biotin tag
The molecule B1 came in with an EC50 of 900 nM.

B2: IgA binding peptide … (SEQ ID NO 35) (peptide)
peptide: KMVCLAYRGRPVCFPT
modifications: cyclized; carboxy terminal PEG linker and a biotin tag
Take B2: the EC50 turned out to be 900 nM.
